Key:
[1] = system: Smn knock-down NSC-34 motor neuronal cells (sh_Smn_519-FM5S clone); assay: Apoptotic cell death (cells with condensed nuclei, Hoechst 33342) in Smn knock-down motor neuronal cells; format: cell-based, mouse; conditions: 48 hours after the switch to DMed
Experimental: The psiRNA-hH1neo G2 (InvivoGen) and sh_Smn_519 (Shafey et al. Hypomorphic Smn knockdown C2C12 myoblasts reveal intrinsic defects in myoblast fusion and myotube morphology, 2005, Exp Cell Res 311:49-61) constructs were transfected into the NSC-34 cells using FuGENE HD Transfection Reagent (Promega) according to the manufacturer's instructions. Forty-eight hours after the transfection, cells were subject to drug selection with 1 mg/ml G418 (Sigma-Aldrich) to obtain stably transfected cell lines. Two weeks after the transfection, single clones were picked and expanded in a DMEM/10% FBS/G418-based medium to obtain the psiRNA and sh_Smn_519 NSC-34 clonal cell lines, respectively. […]
Twenty-four hours after plating, psiRNA and sh_Smn_519 NSC-34 stable clones were treated with various concentrations of transducible fusion protein/peptide (3 hours). […] Neurite outgrowth and/or cell death were subsequently analyzed (see "Immunocytochemistry") .
Cells were rinsed in phosphate-buffered saline (PBS) and fixed in 4% PFA for 20 min. […] The number of cells showing condensed nuclei was counted as previously described.
Subsequently, the neuroprotective activity of the two peptides was evaluated. […] Forty-height hours after the switch to DMed, the impact of the two TAT48-57-fusion peptides towards cell death was determined in terms of reduction in the number of cells with condensed nuclei. […]

[2] = system: Smn knock-down NSC-34 motor neuronal cells (sh_Smn_519-FM5S clone); assay: Neuritogenesis and neurite outgrowth (morphometric analysis, β-tubulin III immunostaining) in Smn knock-down motor neuronal cells; format: cell-based, mouse
Experimental: The psiRNA-hH1neo G2 (InvivoGen) and sh_Smn_519 (Shafey et al. Hypomorphic Smn knockdown C2C12 myoblasts reveal intrinsic defects in myoblast fusion and myotube morphology, 2005, Exp Cell Res 311:49-61) constructs were transfected into the NSC-34 cells using FuGENE HD Transfection Reagent (Promega) according to the manufacturer's instructions. Forty-eight hours after the transfection, cells were subject to drug selection with 1 mg/ml G418 (Sigma-Aldrich) to obtain stably transfected cell lines. Two weeks after the transfection, single clones were picked and expanded in a DMEM/10% FBS/G418-based medium to obtain the psiRNA and sh_Smn_519 NSC-34 clonal cell lines, respectively. To induce differentiation, clones were maintained in culture with differentiation medium (DMed) (1:1 DMEM plus Ham's F12, 1% FBS, 1% penicillin/streptomycin, and 1% modified Eagle's medium nonessential amino acids; see 48).
Twenty-four hours after plating, psiRNA and sh_Smn_519 NSC-34 stable clones were treated with various concentrations of transducible fusion protein/peptide (3 hours). Protein/peptide in excess were subsequently removed and cells were maintained in culture in DMed for 24 and 48 hours. Cells were then fixed and stained, as described below. Neurite outgrowth and/or cell death were subsequently analyzed (see "Immunocytochemistry") .
For immunostaining, cells were incubated for 1 hour with a blocking/permeabilizing solution (5% Serum, 0.1% Triton X-100, in PBS) at room temperature. To evaluated neurite outgrowth, cells were immunostained using a mouse antibody to β-tubulin isotype III (Sigma-Aldrich). Neurite length was measured according to a protocol previously established in our laboratory using ImageJ software (National Institutes of Health) and NeuronJ plug-in. Briefly, only processes as long as twofold the average cell body dimension were considered neurites and measured. […] A total of about 100 cells per group were analyzed. […]

B1: TAT48-57-SMN^235-294: fusion peptide of carrier peptide TAT48-57 (SEQ ID NO: 1) and SMN^235-294 carboxy-terminal domain (SEQ ID NO: 29) as active peptide portion (peptide, listed as Homo sapiens)
chain: GRKKRRQRRRPFPSGPPIIPPPPPICPDSLDDADALGSMLISWYMSGYHTGYYMGFRQNQKEGRCSHSLN
modifications: HIV-1; Fragment of the full-length human SMN protein, i.e. the SMN235-294 carboxy-terminal domain
diminished the number of cells with condensed nuclei ([1]; 100 nM, sh_Smn_519-FM5S cells, versus untreated cells): ~45%
concentrations significantly protective towards apoptotic cell death ([1]; sh_SMN_519-FM5S cells): 1 to 100 nM
diminished the number of sh_Smn_519-FM5S cells without neurites ([2]; 10 nM, versus untreated sh_SMN_519-FM5S cells, 24 hours after the switch to DMed): ~40%
concentration with significant effect on number of cells without neurites and mean length of the longest neurite per cell ([2]; sh_Smn_519-FM5S clone, 3 hours pre-incubation, then differentiating conditions (DMed)): above 10 nM
increased the mean length of the longest neurite per cell ([2]; sh_Smn_519-FM5S clone, apparently 10 nM, versus untreated cells, 24 hours after the switch to DMed): 30%

— EP3573716B1, “BIOLOGICALLY ACTIVE FUSION PEPTIDE FOR USE IN THE TREATMENT OF SPINAL MUSCULAR ATROPHY (SMA)” (Istituti Clinici Scientifici Maugeri Spa Società Benefit, priority 2017, dated 2026)
